What was measured:
[1] = target: T1, Aβ(1–42) fibrils (Homo sapiens, UniProt P05067); test: far-Western, overlay or dot blot; spot blot: 1–20 μg of each Aβ species (oligomers/intermediates or fibrils) on nitrocellulose, blocked with 2% BSA in TBST; 4 μg/ml B10AP or KW1AP in TBST for 1 h, room temperature; NBT/BCIP; densitometry; conditions: both partners purified
T1 construct: β-amyloid peptide Aβ(1–42), the 42 amino acid isoform, cut product of the amyloid precursor protein; numbers count on: the Aβ peptide; Fibrillar assembly state; also called Aβ(1–42) amyloid fibrils; source: synthetic peptide (Dr. Sven Rothemund, University Leipzig); fibrils formed at 1 mg/ml in 50 mM sodium borate, pH 9.0, 5 days, room temperature

[2] = target: T2, Aβ(1–40) fibrils (Homo sapiens, UniProt P05067); test: as above; conditions: both partners purified
T2 construct: β-amyloid peptide Aβ(1–40), the 40 amino acid isoform, cut product of the amyloid precursor protein; numbers count on: the Aβ peptide; Fibrillar assembly state; also called Aβ(1–40) amyloid fibrils; source: fibrils formed at 1 mg/ml in 50 mM sodium borate, pH 9.0, 5 days, room temperature

[3] = target: T3, Aβ(1–40) oligomers (Homo sapiens, UniProt P05067); test: as above; conditions: both partners purified
T3 construct: β-amyloid peptide Aβ(1–40), the 40 amino acid isoform, cut product of the amyloid precursor protein; numbers count on: the Aβ peptide; Oligomeric assembly state; also called Aβ(1–40) intermediates; Aβ(1-40)-derived oligomers; source: oligomers prepared in 100% HFIP, diluted 10-fold with water, supernatant after 14,000 x g

[4] = target: T4, Aβ(1–40) expressed in Drosophila (KW1;Aβ40 flies) (Homo sapiens (expressed in Drosophila), UniProt P05067); test: co-IP; head homogenates of 20-day old KW1;Aβ40 flies incubated with blocked protein A magnetic beads without antibody (fly KW1 binds the beads directly); PBS + 0.025% TritonX-100, room temperature; elution with 50 mM glycine pH 2.8; WB with 6E10 (Aβ) and anti-myc (KW1); conditions: partners not purified
T4 construct: β-amyloid peptide Aβ(1–40); numbers count on: the Aβ peptide; Assembly state of the peptide in the fly homogenate is not defined; source: transgenic Drosophila melanogaster (Gal4-elav c155 driver, neuronal), in head homogenate of 20-day old flies

B1: B10AP (alkaline phosphatase coupled B10 antibody fragment) (VHH)
VHH: EVQLVESGGGLVQPGGSLRLSCTASGYTFSHRYHRWFRQAPGKEREIVAVISQSGMRTYYADSVKGRFTISRDNAKNTVYLQMNSLKPEDTAMYYCAAGTRKNVWTRQHPFDYWGQGTQVTVSS
notes: B10, phage display selected from a fully synthetic library of camelid heavy chain antibody fragments; crystal structure of B10 is PDB 3LN9; The introduction speaks of bivalent B10 in earlier work; also called AP coupled B10
[1]
  binding result: binds
[2]
  binding result: binds

B2: KW1AP (alkaline phosphatase coupled KW1 antibody fragment) (VHH)
VHH: EVQLVESGGGSVQPGGSLRLSCTASGYTFSQEFVIWFRQAPGKEREIVSGISLRKGWTYYADSVKGRFTISQDNAKNTVYLQMNNLKPEDTAMYYCAAAPTATHALYFDYWGQGTQVTVSS
notes: KW1, phage display selected from a fully synthetic library of camelid heavy chain antibody fragments; crystal structure of KW1 is PDB 3TPK; The introduction speaks of bivalent KW1 in earlier work; also called AP coupled KW1
[3]
  binding result: binds

B3: fly KW1 (myc-tagged KW1 antibody fragment expressed in Drosophila neurons) (VHH)
VHH: B2 VHH
notes: KW1 as in m1; crystal structure PDB 3TPK; Expressed with an N-terminal secretion signal peptide (SSP) from the Drosophila necrotic gene; Band at ~17 kDa on anti-myc Western blot; source: transgenic Drosophila melanogaster (Gal4-elav c155 driver, neuronal), in head homogenate; not shown: myc, C-terminal, kept
[4]
  binding result: binds

From paper PMC4029271, “Oligomer-targeting with a conformational antibody fragment promotes toxicity in Aβ-expressing flies” (Acta Neuropathologica Communications, 2014)
